From patent US20220395553A1, “CXCR4 ANTAGONIST PEPTIDES” (COHBAR, INC., priority 2019, published 2022)
Square brackets hold non-standard residues; d marks the D form. Ends that are not written are not given here.

B1: SEQ ID NO: 57 (peptide)
peptide: LERYHHS[dA]RSSLRPYTK-NH2
modifications: N-terminus assumed
SMILES: CC(C)C[C@H](NC(=O)[C@H](CO)NC(=O)[C@H](CO)NC(=O)[C@H](CCCNC(=N)N)NC(=O)[C@@H](C)NC(=O)[C@H](CO)NC(=O)[C@H](Cc1c[nH]cn1)NC(=O)[C@H](Cc1c[nH]cn1)NC(=O)[C@H](Cc1ccc(O)cc1)NC(=O)[C@H](CCCNC(=N)N)NC(=O)[C@H](CCC(=O)O)NC(=O)[C@@H](N)CC(C)C)C(=O)N[C@@H](CCCNC(=N)N)C(=O)N1CCC[C@H]1C(=O)N[C@@H](Cc1ccc(O)cc1)C(=O)N[C@H](C(=O)N[C@@H](CCCCN)C(N)=O)[C@@H](C)O

What follows are binders tested against SNAP tagged-CXC4 receptor labeled with terbium (Tag-lite CXCR4 cells, HEK293) (UniProt P61073) (assay: HTRF competition on Tag-lite CXCR4 HEK293 cells; competitor labelled CXCL12).
Sequence of SNAP tagged-CXC4 receptor labeled with terbium (Tag-lite CXCR4 cells, HEK293) (P61073 whole entry): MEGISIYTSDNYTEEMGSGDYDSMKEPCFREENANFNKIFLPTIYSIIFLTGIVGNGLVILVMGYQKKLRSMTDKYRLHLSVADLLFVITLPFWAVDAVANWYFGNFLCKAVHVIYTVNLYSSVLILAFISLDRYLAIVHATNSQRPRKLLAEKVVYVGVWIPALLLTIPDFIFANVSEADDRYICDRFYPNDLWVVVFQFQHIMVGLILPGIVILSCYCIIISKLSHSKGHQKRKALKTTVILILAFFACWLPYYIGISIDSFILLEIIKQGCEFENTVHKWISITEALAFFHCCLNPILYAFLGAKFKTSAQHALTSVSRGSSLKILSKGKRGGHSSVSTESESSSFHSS

Binder	IC50 [nM]	Percent Inhibition of CXCR4/CXCL12 Binding (400 nM peptide) [%]
LRRYHHSVRSSLRPYTK-NH2 [SEQ ID NO: 16]	573	-2
LERYHHSVRSSLRPYTK-NH2 [SEQ ID NO: 56]	5	79
B1	7	77
LERYHHT[dA]RSSLRPYTK [SEQ ID NO: 40]	–	76
